Measurements published in article PMC1368978, “Crystal structure of a DNA polymerase sliding clamp from a Gram-positive bacterium” (BMC Structural Biology, 2006).

Target: the molecule itself
Test: crystal structure; hanging drop, 20 mg/mL protein in Buffer A + 100 mM NaCl; 30% PEG 2000 MME, 100 mM sodium acetate pH 4.5, 200 mM ammonium sulfate, 20°C; space group P2(1), one dimer in the asymmetric unit; refined to 2.1 Å

B1: β subunit of the DNA polymerase III holoenzyme of Streptococcus pyogenes (natural protein)
chain: MIQFSINRTLFIHALNTTKRAISTKNAIPILSSIKIEVTSTGVTLTGSNGQISIENTIPVSNENAGLLITSPGAILLEASFFINIISSLPDISINVKEIEQHQVVLTSGKSEITLKGKDVDQYPRLQEVSTENPLILKTKLLKSIIAETAFAASLQESRPILTGVHIVLSNHKDFKAVATDSHRMSQRLITLDNTSADLMVVLPSKSLREFSAVFTDDIETVEVFFSPSQILFRSEHISFYTRLLEGNYPDTDRLLMTEFETEVVFNTQSLRHAMERAFLISNATQNGTVKLEITQNHISAHVNSPEVGKVNEDLDIVSQSGSDLTISFNPTYLIESLKAIKSETVKIHFLSPVRPFTLTPGDEEESFIQLITPVRTN
notes: β subunit (sliding clamp) of DNA polymerase III, Streptococcus pyogenes; residues up to Thr 377 are named in the model; A selenomethionine-derivatized form was also made and crystallized for phasing (MAD); also called S. pyogenes β subunit; S. pyogenes β clamp; source: E. coli BLR DE3 (plasmid pETSpdnaN), purified (ammonium sulfate cut, Fast Flow Q, EAH-Sepharose 4B, Mono Q)
  stoichiometry N: 2
